Experimental data published in FireProtDB (doi:10.1002/pro.5560010709).

B1: Ribonuclease pancreatic, P61823 (parent)
chain: MALKSLVLLSLLVLVLLLVRVQPSLGKETAAAKFERQHMDSSTSAASSSNYCNQMMKSRNLTKDRCKPVNTFVHESLADVQAVCSQKNVACKNGQTNCYQSYSTMSITDCRETGSSKYPNCAYKTTQANKHIIVACEGNPYVPVHFDASV

Variants of: B1
Settings: Bos taurus, pH 4.2, Thermal, CD, Sodium acetate 0.01 M, NaCl 0.1 M, reversible: yes, structure 1RTB, whole UniProt chain shown; for ddG of mutation (higher = less stable) / heat capacity change of unfolding: 56.2 °C

Q: For P119A P140G, which “ddG of mutation (higher = less stable)” value is on record?
A: The value was 4.2 kcal/mol.

Q: And the “heat capacity change of unfolding” value?
A: The value was 2.2 kcal/mol/K.

Q: And the Tm?
A: The Tm was 36 °C.

Q: And the “change of melting temperature, mutant - wild type (higher = more stable)” value (“change of melting temperature, mutant” for short)?
A: The value was -20 °C.

Q: Which “ddG of mutation (higher = less stable)” value does the source give for P140A here?
A: The value was 3.2 kcal/mol.

Q: And the “heat capacity change of unfolding” value?
A: Its value is 2.2 kcal/mol/K.

Q: What about the Tm of the same variant?
A: The Tm was 45.5 °C.

Q: And the “change of melting temperature, mutant” value?
A: Its value is -10.5 °C.

Q: What does the source list for P140G?
A: ddG of mutation (higher = less stable): 2.8 kcal/mol; heat capacity change of unfolding: 2.2 kcal/mol/K; Tm: 45.5 °C; change of melting temperature, mutant - wild type (higher = more stable): -10.5 °C

Q: Which “ddG of mutation (higher = less stable)” value does the source give for P119S here?
A: Its value is 2.1 kcal/mol.

Q: What about the “heat capacity change of unfolding” value of the same variant?
A: Its value is 2.2 kcal/mol/K.

Q: And the Tm?
A: The Tm was 47.5 °C.

Q: And the “change of melting temperature, mutant” value?
A: Its value is -8.5 °C.

Q: With P119A as the variant, how does the “ddG of mutation (higher = less stable)” value read?
A: Its value is 2.7 kcal/mol.

Q: And the “heat capacity change of unfolding” value?
A: Its value is 2.2 kcal/mol/K.

Q: And the Tm?
A: Its Tm is 46.5 °C.

Q: And the “change of melting temperature, mutant” value?
A: The value was -9.5 °C.
